The values that follow come from patent US20130143822A1, “AGENTS FOR TREATING ALZHEIMER'S DISEASE” (priority 2010, published 2013).

One assay has as its target Aβ1-42 oligomers (Homo sapiens, UniProt P05067). In words: Surface plasmon resonance, Aβ1-42 monomers, oligomers and fibrils immobilized on a CM5 biosensor chip. The class given is binding. The method, then: L3 is shown in section A and D3 is shown in section B of the figure. […] Aβ1-42 monomers (dashed lines), oligomers (solid lines) and fibrils (dotted line) were immobilized on a CM5 biosensor chip. Interaction analyses were carried out by means of surface […]. RU: resonance units. In each case, 25 μl peptide solution (100 μg/ml) was injected. […] The same results are also obtained for Aβ1-40 oligomers.
On the technique in general: Surface plasmon resonance follows binding to a sensor surface in real time, without labels.

Another assay deals with Aβ1-42 (Homo sapiens, UniProt P05067). In words: Density gradient centrifugation (iodixanol gradient 5-50%) of Aβ-peptide mixtures, SDS-PAGE and silver staining. In kind it is biochemical. The conditions noted are these: 125 μM Aβ and 125 mM peptide. The method, then: L3 precipitates Aβ oligomers from complex mixtures of different Aβ forms. The size distributions of Aβ in solution and in Aβ-peptide mixtures were examined by way of sedimentation analysis on an iodixanol gradient (5-50%). The mixtures contained 125 μM Aβ and 125 mM peptide, respectively. After centrifugation, 14 fractions of 140 μl each were obtained from the surface by sequential pipetting and analyzed by means of denatured polyacrylamide gel electrophoresis SDS-PAGE and subsequent silver staining. […] Large aggregates form, which in subsequent experiments are described as amorphous, not fibrillary and not amyloidogenic.
Aβ1-42, sequence (P05067 672-713 limits assumed): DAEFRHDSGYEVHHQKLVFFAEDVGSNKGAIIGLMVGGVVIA

The target of assay [1] is Aβ1-42 oligomeric particles (Homo sapiens, UniProt P05067). The assay is described as follows: Dynamic light scattering, hydrodynamic radius of Aβ1-42 particles. The class given is biochemical. The conditions noted are these: 5 μM Aβ1-42 oligomeric particles, 50 μM L3, immediately and after 20 minutes, 25° C. The method, then:
Dynamic light scattering is used to determine the hydrodynamic radius of particles in solution or suspension. A 5 μM sample of Aβ1-42 oligomeric particles was diluted by adding a 50 μM L3 sample on the one hand, and buffer (50 mM sodium phosphate, 100 mM NaCl, pH 7.4) on the other hand. The hydrodynamic radius of the Aβ1-42 particles with and without L3 was measured using a DynaPro light scattering system, immediately after the sample was prepared and after 20 minutes. A 655.6 nm laser (13 mW/58% laser intensity) was used. The measuring time was 2 seconds, and the measurement temperature was 25° C. Spherical sedimented particles were assumed for calculating the hydrodynamic radius.

Assay [2] addresses T1, Aβ (Homo sapiens, UniProt P05067).
T1 construct: joint stock solutions made of 25 μM Aβ (light bars) and 25 μM Aβ with 1 mM L3
In words: Thioflavin T test of Aβ aggregation. In kind it is biochemical. The conditions noted are these: 25 μM Aβ with 1 mM L3. The method, then:
(§1) Both tests were prepared from joint stock solutions made of 25 μM Aβ (light bars) and 25 μM Aβ with 1 mM L3 (dark bars). In the ThT test, 5 μl of the solutions was mixed with 200 μl ThT solution (5 μM ThT; 50 mM glycerin pH 8.5) and measured at λex 440 nm and λem=490 nm in the fluorescence spectrometer. ThT is a dye which, when bound to regular fibrils, has higher fluorescence and therefore serves as a measure of the fibrillation. In the turbidimetric test, the clouding of the solution was measured in the UV/VIS spectrometer as a measure of the aggregation as absorption at 355 nm.

For assay [3], the target named is T1, Aβ. In words: Turbidimetric test of Aβ aggregation (absorption at 355 nm). In kind it is biochemical. The conditions noted are these: 25 μM Aβ with 1 mM L3. The method, then: as §1
Assay [4] addresses T1, Aβ. In words: Seeding test: amyloidogenic properties of Aβ-L3 aggregates by ThT fluorescence over time. In kind it is biochemical. The conditions noted are these: seeds 20% v/v added to freshly prepared Aβ, compared with Aβ without seeds. The method, then:
Amyloidogenic seeds are particles which act as “nuclei” and expedite the aggregation process. With regard to the aggregation of Aβ, it is known that existing Aβ oligomers/seeds considerably expedite the aggregation process of monomers. For the experiment, seeds were produced which consisted of Aβ (triangles) and such, which consisted of Aβ and L3 (squares). After incubating Aβ and A-L3 mixtures for 5 days, the seeds were centrifuged off and washed. The seeds (20% v/v) were added to freshly prepared Aβ in the ThT test. Aβ without seeds (rhombi) were measured for control purposes. […] This is an indication that Aβ-D3 aggregates no longer have amyloid structures.

[5] abbreviates: SPR, 25 μl peptide solution (100 μg/ml) injected.

T1 sequence (P05067 672-713 limits assumed): as above
Aβ1-42 oligomers, sequence (P05067 672-713 limits assumed): as above
Aβ1-42 oligomeric particles, sequence (P05067 672-713 limits assumed): as above

As to “L3: L3 peptide, which according to the invention binds to Aβ oligomers (LRMMLQIKRIPR)”, in the assay with Aβ1-42 oligomers (setting [5]), the “binding to Aβ1-42 oligomers” value is reported as “very clear binding” and the “maximum resonance (RU) compared with D3” value is on record as “higher maximum resonance than D3”. Also, the “binding strength compared with D3” value with Aβ1-42 oligomers (SPR, FIG. 1) is given as “stronger binding than D3”. Further, the “binding to the Aβ peptide compared with peptide D3” value with Aβ1-42 oligomers (general statement) is “better binding”. In the assay with Aβ1-42, the “content of Aβ oligomers after density gradient centrifugation” value is “significantly reduce”. Moreover, in the assay with Aβ1-42 (at the analyzed time), the “reduction of Aβ oligomer content compared with D3” value is given as “to a greater degree than D3”. The “formation of large Aβ aggregates (hydrodynamic radius)” value in assay [1] was “favorable in terms of the fast formation of large Aβ aggregates”. Further, the “ThT test result of the Aβ aggregates (fibrillary structure)” value in the assay with Aβ [2] is given as “negative”. For the same substance, in the assay with Aβ [3], the “development of Aβ aggregates (clouding)” value is listed as “fast development of large Aβ aggregates”. Moreover, the “acceleration of Aβ aggregation by seeds composed of Aβ and L3” value with Aβ [4] is on record as “do not result in any accelerated aggregation”.
